Measured values: patent publication US12616711B2, “Therapeutic dendrimer” (Starpharma Pty Ltd, priority 2019, dated 2026)

Legend:
[1] = Gemcitabine release from dendrimers in PBS; format: physicochemical; details: PBS pH 7.4, 37° C.
Protocol: (§1) A study was carried out to determine the rate of gemcitabine release from dendrimer compounds in PBS and citrate buffer. Gemcitabine-conjugated dendrimers of the present disclosure, and a comparative example dendrimer, were each dissolved in PBS Buffer (2 mL, 10 mM, pH 7.4) or Citrate Buffer (2 mL, 0.1 M, pH 4.5) and held at 37° C. Samples were then analysed by injecting 5 μL of the solution on HPLC. At various time points, samples were analysed by HPLC. HPLC (C8 XBridge, 3×100 mm), gradient: 5% ACN/H2O (0-1 min), 5-80% ACN (1-7 min), 80% ACN (7-12 min), 80-5% ACN (12-13 min), 5% ACN (13-15 min), 243 nm, 10 mM ammonium formate buffer, 0.4 mL/min.

CAPAN-1 cells = assay: alamarBlue viability assay, GI50; format: cell-based, human; details: 144 h, given in μM Gemcitabine
Protocol: (§2) A study was carried out to determine the ability of example dendrimers to inhibit growth of cancer cell lines using an alamarBlue viability assay (Thermo Fisher, DAL1025).
(§3) The cytotoxicity of compounds toward MDA-MB-231, A549, H460, BxPC3 and CAPAN-1 cells were evaluated for viability. Cells were seeded at a density of 1.2-5×10^3 cells, dependent on cell growth rate, in 96 well plates and incubated overnight. Cells were then treated with serial dilutions of test compositions for 72 h (MDA-MB-231, A549 and H460 lines) or 144 h (BxPC3 and CAPAN-1 lines). For cell viability analysis, 10% media volume of alamar Blue was added during the final 6-8 h of incubation. Reduction of alamarBlue in living cells yields a red fluorescent metabolite that can be read on a plate reader (560 nm excitation/610 nm emission.). Cell viability and subsequent GI50 values were was determined from the blank corrected dose-response curves, with 4-parameter nonlinear curve fit, in GraphPad Prism.

A549 cells = assay: alamarBlue viability assay, GI50; format: cell-based, human; details: 72 h, given in μM Gemcitabine
Protocol: as §2, §3

[2] = test system: OVCAR-3 (human Ovarian Carcinoma cell line) mouse xenograft; assay: OVCAR-3 mouse xenograft, alone or with Carboplatin (Example 16); format: in vivo; details: 3 at 4 mg/kg and 6 mg/kg weekly; Carboplatin 40 mg/kg weekly in combination; 3 weeks i.v.
Protocol: An OVCAR-3 (human Ovarian Carcinoma cell line) mouse xenograft cancer model was used to assess the anti-tumour efficacy properties of 3 alone or in combination with Carboplatin, compared to Gemcitabine, alone or in combination with Carboplatin. NSG Mice were inoculated and tumours sized as described above. On day twenty nine after implantation, mice with similar sized tumours (mean tumour volume 100 mm^3) were randomised into 10 groups of 10 animals. Gemcitabine and 3 were prepared as described above. DBLCarboplatin (Hospira) was dissolved in saline solution and further diluted in 5% glucose immediately prior to dosing.
Gemcitabine was administered twice weekly and dendrimers and carboplatin were administered weekly for 3 weeks via tail vein i.v. injection, at 0.1 ml/10 g body weight.

[3] = test system: CAPAN-1 tumour xenografts; assay: CAPAN-1 mouse xenograft, alone or with Abraxane or DEP-DTX (Examples 13a, 13b); format: in vivo
Protocol: Mice were inoculated and tumours sized as described above. On day nineteen after implantation, mice with similar sized tumours (mean tumour volume 100 mm^3) were randomised into 7 groups of 10 animals. […] Abraxane® was dissolved in saline solution immediately prior to dosing.
Abraxane®, gemcitabine and dendrimers were administered at days 1, 10, and 17 via tail vein i.v. injection, at 0.1 ml/10 g body weight.
In an extension of Example 13a, two additional groups of mice were prepared and dosed to assess the anti-tumour efficacy properties of a taxane-dendrimer combined with a nucleoside analogue-dendrimer (e.g. 6). Mice were inoculated and tumours sized as described above.
Dendrimers were administered weekly via tail vein i.v. injection, at 0.1 ml/10 g body weight for 3 weeks.
All statistical analyses were performed using GraphPad Prism 8.1.

A549 tumour xenografts = assay: A549 lung adenocarcinoma mouse xenograft (Example 15); format: in vivo; details: 3 at 6 mg/kg weekly, Gemcitabine 120 mg/kg twice weekly, 3 weeks i.v.
Protocol: A A549 (human adenocarcinomic human alveolar basal epithelial) cell line was used to assess the anti-tumour efficacy properties of 3. NSG mice were inoculated and tumours sized as described above. On day 30 after implantation, mice with similar sized tumours (mean tumour volume 100 mm^3) were randomised into four groups of 10 animals for each tumour type. Gemcitabine and 3 were prepared as described above.
Gemcitabine was administered twice weekly and dendrimer was administered weekly for 3 weeks via tail vein i.v. injection, at 0.1 ml/10 g body weight.

[4] = Gemcitabine release from dendrimers in citrate buffer; format: physicochemical; details: Citrate Buffer pH 4.5, 37° C.
Protocol: as §1

Substance: [BHA Lys][Lys]30[Lys]32 [Compound 3, [BHA Lys][Lys]30[Lys]32 [(α-NH-TDA-Gemcitabine)32 (ε-NHPEG˜2100)32]]
- % Gemcitabine released in PBS ([1]; 0 h): 0%
- % Gemcitabine released in PBS ([1]; 0.08 h): 3.95%
- % Gemcitabine released in PBS ([1]; 2 h): 11.23%
- % Gemcitabine released in PBS ([1]; 4 h): 16.6%
- % Gemcitabine released in PBS ([1]; 6 h): 21.99%
- % Gemcitabine released in PBS ([1]; 8 h): 25.64%
- % Gemcitabine released in PBS ([1]; 10 h): 30.03%
- % Gemcitabine released in PBS ([1]; 12 h): 33.17%
- % Gemcitabine released in PBS ([1]; 24 h): 46.36%
- % Gemcitabine released in PBS ([1]; 26 h): 48.07%
- % Gemcitabine released in PBS ([1]; 28 h): 51.24%
- % Gemcitabine released in PBS ([1]; 30 h): 53.41%
- % Gemcitabine released in PBS ([1]; 32 h): 54.48%
- % Gemcitabine released in PBS ([1]; 34 h): 55.8%
- % Gemcitabine released in PBS ([1]; 36 h): 57.52%
- GI50 (CAPAN-1 cells): 0.008 µM
- GI50 (A549 cells): 0.05 µM
- anti-tumour efficacy compared to other groups (FIG. 9) [2]: more effective than Gemcitabine
- anti-tumour efficacy compared to other groups at day 29 ([3]; day 29): significantly more effective than Gemcitabine
- Tumour Growth inhibition (%) v vehicle at day 29 ([3]; day 29, i.v., Gemcitabine 120, Abraxane 40, 3 at 6.5, 6 at 5 (day 1) then 4, DEP-DTX 24 (10 in combination) mg/kg): 103%
- anti-tumour efficacy compared to other groups over the dosing study (FIG. 6) ([3]; out to day 82): more effective than Gemcitabine and also more effective than the combination of gemcitabine and Abraxane®
- anti-tumour efficacy compared to Gemcitabine (FIG. 8) (A549 tumour xenografts): more effective than Gemcitabine
- % Gemcitabine released in citrate buffer ([4]; 0 h): 0%
- % Gemcitabine released in citrate buffer ([4]; 0.08 h): 4.42%
- % Gemcitabine released in citrate buffer ([4]; 2 h): 5.21%
- % Gemcitabine released in citrate buffer ([4]; 4 h): 5.51%
- % Gemcitabine released in citrate buffer ([4]; 6 h): 4.92%
- % Gemcitabine released in citrate buffer ([4]; 8 h): 5.61%
- % Gemcitabine released in citrate buffer ([4]; 10 h): 5.39%
- % Gemcitabine released in citrate buffer ([4]; 12 h): 5.94%
- % Gemcitabine released in citrate buffer ([4]; 24 h): 7.53%
- % Gemcitabine released in citrate buffer ([4]; 26 h): 7.52%
- % Gemcitabine released in citrate buffer ([4]; 28 h): 7.75%
- % Gemcitabine released in citrate buffer ([4]; 30 h): 7.71%
- % Gemcitabine released in citrate buffer ([4]; 32 h): 7.48%
- % Gemcitabine released in citrate buffer ([4]; 34 h): 7.72%
- % Gemcitabine released in citrate buffer ([4]; 36 h): 8.19%
